# According to US20170253656A1 (SUTRO BIOPHARMA, published 2017):
# Substitutions are numbered along the chain they refer to.
# B1: 1193-C08 (scFv)
# scFv: EVQLLESGGGLVQPGGSLRLSCAASGFTFNNNWMSWVRQAPGKGLEWVGIINGDDGYTYYADRVKGRFTIIRDNSKNTLYLQMNSLRAEDTAVYYCAKVALGRPRRFDYWGQGTLVTVSSGGGGSGGGGSGGGGSEIVLTQSPGTLSLTPGERATLSCRASQSVSSNYLAWYQQKPGQAPRLLIYGASSRATGIPDRFSGSGSGTDFTLTISRLEPEDFAMYYCQQHYTTPPTFGQGTKVEIK
# notes: Called scFv clone
# B2: 1193-E06b (scFv)
# scFv: EVQLLESGGGLVQPGGSLRLSCAASGFTFNNTDMSWVRQAPGKGLEWVGIINGSGGATNYADSVKGRFTISRDNSKNTLYLQMNSLRAEDTAVYYCAKFENEWEVSMDYWGQGTLVTVSSGGGGSGGGGSGGGGSEIVLTQSPGTLSLSPGERATLSCRASQSVSSSYLAWYQQKPGQAPRLLIYGASSRATGIPDRFSGSGSGTDFTLTISRLEPEDFAVYYCQQHYTTPPTFGQGTKVEIK
# notes: Called scFv clone
# B3: 1193-H04b (scFv)
# scFv: EVQLLESGGGLVQPGGSLRLSCAASGFTFTSSWMSWVRQAPGKGLEWVGIINGYNGITYYADSVKGRFTISRDNSKNTLYLQMNSLRAEDTAVYYCAKPSAPGARRFDYWGQGTLVTVSSGGGGSGGGGSGGGGSEIVLTQSPGTLSLSPGEATLSCRASQSVSSSYLAWYQQRPGQAPRLLIYGASSRATGIPDRFSGSGSGTDFTLTISRLEPEDFAVYYCQQHYTTPPTFGQGTKVEIK
# notes: Called scFv clone
# B4: 1193-B06 (scFv)
# scFv: EVQLLESGGGLVQPGGSLRLSCAASGFTFTGNWMSWVRQAPGKGLEWVGIIYGTSGATYYADSVKGRFTISRDNSKNTLYLQMNSLRAEDTAVYYCAKPSMSGSRGFDYWGQGTLVTVSSGGGGSGGGGSGGGGSEIVLTQSPGTLSLSPGERATLSCRAGQSVSSSYLAWYQQKPGQAPRLLIYGASSRATGIPDRFSGSGSGTDFTLTISRLEPEDFAVYYCQQHYTTPPTFGQGTKVEIK
# notes: Called scFv clone; VH3-23 / Vk3-A27; Biacore capture was on anti-human Fc, so an Fc may have been attached
# B5: 1198-A01 paired with trastuzumab LC (Fab, V domains shown)
# VH: EVQLVESGGGLVQPGGSLRLSCAASGFTFSDYDMSWVRQAPGKGLEWVGFIAQDGSYKYYVDSVKGRFTISRDNAKNSLYLQMNSLRAEDTAVYYCARSKLFRAGQFDYWGQGTLVTVSS
# VL: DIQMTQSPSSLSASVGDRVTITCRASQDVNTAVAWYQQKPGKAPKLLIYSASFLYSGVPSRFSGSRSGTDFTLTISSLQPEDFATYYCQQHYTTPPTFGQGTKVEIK
# notes: Called Fab clone
# B6: 1198-B10 paired with trastuzumab LC (Fab, V domains shown)
# VH: EVQLVESGGGLVQPGGSLRLSCAASGFNISGSWIHWVRQAPGKGLEWVGYIYPDDGDTYYADSVKGRFTISADTSKNTAYLQMNSLRAEDTAVYYCAREGSHNLDKMDYWGQGTLVTVSS
# VL: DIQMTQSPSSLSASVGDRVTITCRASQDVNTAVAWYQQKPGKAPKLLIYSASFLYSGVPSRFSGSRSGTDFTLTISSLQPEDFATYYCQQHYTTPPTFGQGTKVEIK
# notes: Called Fab clone
# B7: 1198-D03 paired with trastuzumab LC (Fab, V domains shown)
# VH: EVQLVESGGGLVQPGGSLRLSCAASGFNINNYDIHWVRQAPGKGLEWVANIDPYNGATYYADSVKGRFTISADTSKNTAYLQMNSLRAEDTAVYYCARVLWGFWAPFDYWGQGTLVTVSS
# VL: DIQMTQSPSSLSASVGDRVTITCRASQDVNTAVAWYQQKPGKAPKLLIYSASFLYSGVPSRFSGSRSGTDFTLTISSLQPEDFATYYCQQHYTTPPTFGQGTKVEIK
# notes: Called Fab clone
# B8: 1198-D04 paired with trastuzumab LC (Fab, V domains shown)
# VH: B7 VH with A57T, L100P
# VL: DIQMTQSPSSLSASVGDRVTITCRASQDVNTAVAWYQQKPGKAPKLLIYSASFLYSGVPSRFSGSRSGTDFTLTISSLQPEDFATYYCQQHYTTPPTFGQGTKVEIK
# notes: Called Fab clone
# B9: 1337-A09 light chain paired with VH 1251-A06 (SEQ ID NO: 236) (Fab, V domains shown)
# VH: QVQLVESGGGVVQPGRSLRLSCAASGFDFSSYGMHWVRQAPDKGLEWVAVIWDDGSDRYYADSVKGRFTISRDNSKNTLYLQMNSLRAEDTAVYYCARGGTRVLGAIHGTDVWGQGTTVTVSS
# VL: DIQMTQSPSSLSASVGDRVTITCRASQGIGSWLAWYQQKPEKAPKSLIYAADRLQSGVPSRFSGSGSGTDFTLTISSLQPEDFATYYCQQYHTYPLTFGGGTKVEIK
# notes: 'in Fab format'
# B10: 1337-A10 light chain paired with VH 1251-A06 (SEQ ID NO: 236) (Fab, V domains shown)
# VH: B9 VH
# VL: B9 VL with G30S, L33V, A50G, A51S, D52S, H92N
# notes: 'in Fab format'
# Target: T1, hu-CD74 antigen (R&D SYSTEMS catalog #3590-CD-050) (human, UniProt P04233-2 73-232, limits assumed)
# T1 construct: Bought antigen; also called rhCD74; human CD74
# T1 sequence (looked up): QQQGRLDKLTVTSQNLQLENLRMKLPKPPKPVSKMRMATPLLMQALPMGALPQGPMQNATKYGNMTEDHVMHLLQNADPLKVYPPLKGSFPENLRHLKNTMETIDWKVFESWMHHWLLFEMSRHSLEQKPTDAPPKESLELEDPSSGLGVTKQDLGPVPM
# Assay: SPR (Biacore T200), captured on anti-human Fc, rhCD74 analyte
Kd,koff,kon,Binder
78.2 nM,0.00908 s⁻¹,116000 M⁻¹ s⁻¹,B1
0.668 nM,0.000651 s⁻¹,975000 M⁻¹ s⁻¹,B2
63.8 nM,0.00824 s⁻¹,129000 M⁻¹ s⁻¹,B3
29 nM,0.0274 s⁻¹,946000 M⁻¹ s⁻¹,B4

# Target: T1, hu-CD74 antigen (R&D SYSTEMS catalog …)
# Assay: as above
# Remark: another data set of the same source
Kd,koff,kon,Binder
6.6 nM,0.00119 s⁻¹,179000 M⁻¹ s⁻¹,B5
11.9 nM,0.00286 s⁻¹,241000 M⁻¹ s⁻¹,B6
3.25 nM,0.00636 s⁻¹,1.95e+06 M⁻¹ s⁻¹,B7
6.58 nM,0.00177 s⁻¹,268000 M⁻¹ s⁻¹,B8

# Target: T1, hu-CD74 antigen (R&D SYSTEMS catalog …)
# Assay: as above
# Remark: another data set of the same source
Kd,koff,kon,Binder
0.135 nM,0.000134 s⁻¹,994000 M⁻¹ s⁻¹,B9
0.172 nM,0.000161 s⁻¹,935000 M⁻¹ s⁻¹,B10
